{"source": "patent US20180127478A1", "biological_target": "GH receptor (on Nb2 cells)", "assay": "cell-based or functional assay", "data": [{"substance": "commercial recombinant hGH (Somatropin, United States Pharmacopeia) (from UniProt P01241 27-217) (ligand)", "values": [{"measurement": "Nb2 cell proliferation, EC50", "value": 0.166, "unit": "nM"}]}]}
